Source: patent publication US10543282B2, “Targeted peptide conjugates” (Marker Gene Technologies, Inc., priority 2014, dated 2020)
Non-standard residues stand in square brackets, D forms with d. Residues, ends and D or L forms follow the SMILES beside them. ξ: configuration not given here. *: point of attachment. X2 = Cn1cc(C2=C(c3ccc(NC(=O)CCCN4C(=O)CC(*)C4=O)cc3)C(=O)NC2=O)c2ccccc21; X1 = O=C(CCCN1C(=O)CC(*)C1=O)Nc1c(Br)cc(Br)cc1CN[C@H]1CC[C@H](O)CC1; ξC = NC(CS)C(=O)O; ξA = CC(N)C(=O)O

What was measured:
[1] = system: lysosomal GCase in immortalized B-Lymphoblast cells derived from a Gaucher I patient (GM10870); assay: Lysosomal GCase activity by flow cytometry with LysoLive fluorogenic GCase substrate; assay type: cell-based, human; settings: 48 hours; for lysosomal GCase activity compared to native drug SB216763: 1.0-5.0 uM, FIG. 14; for lysosomal GCase activity, Ambroxol and its targeted derivative: multiple concentrations, FIG. 15
Method: Immortalized B-Lymphoblast cells derived from a Gaucher I patient (GM10870, CCR) were incubated overnight in a CO2 incubator at 37° C./5% CO2. Equal numbers of cells (50,000 cells/well) were transferred to individual wells of 96-well tissue culture plates and treated with the native drug NSC 95397 or the organelle targeted NSC 95397 derivatives (M2770, M2771) at multiple concentrations (0.5-10 uM) and incubated at 37° C./5% CO2 for 48 hours. A lysosomal-targeted fluorogenic GCase substrate (MarkerGene™ LysoLive™ Lysosomal β-Glucosidase Assay Kit, Product M2775) was then added to the wells according to the manufacturer's instructions to a final concentration of 5 uM and cells were incubated a further 16 hours. DRAQ7 (dead-cell stain) was then added to the cells to a final concentration of 3 uM and cells immediately analyzed using a BD Accuri C6 flow cytometer, capturing 10000 live cell events and the median fluorescence of the stained cell populations graphed as shown in FIG. 13.
Immortalized B-Lymphoblast cells derived from a Gaucher I patient (GM10870, CCR) were incubated overnight in a CO2 incubator at 37° C./5% CO2. Equal numbers of cells (50,000 cells/well) were transferred to individual wells of 96-well tissue culture plates and treated with native drug SB216763 or the organelle targeted SB216763 derivatives (M2747, M2748) at multiple concentrations (1.0-5.0 uM) and incubated at 37° C./5% CO2 for 48 hours. A lysosomal-targeted fluorogenic GCase substrate (MarkerGene™ LysoLive™ Lysosomal β-Glucosidase Assay Kit, Product M2775) was then added to the wells according to the manufacturer's instructions to a final concentration of 5 uM and cells were incubated a further 16 hours. DRAQ7 (dead-cell stain) was then added to the cells to a final concentration of 3 uM and all cell wells immediately analyzed using a BD Accuri C6 flow cytometer, capturing 10000 live cell events and the median fluorescence of the stained cell populations graphed as shown in FIG. 14.
Immortalized B-lymphoblast cells derived from a Gaucher I patient leukocytes (GM10870, CCR) were incubated overnight in a CO2 incubator at 37° C./5% CO2. Equal numbers of cells (50,000 cells/well) were transferred to individual wells of 96-well tissue culture plates and treated with the native drug Ambroxol or the organelle-targeted Ambroxol derivative (M2781) at the multiple concentrations shown and incubated at 37° C./5% CO2 for 48 hours. Following drug treatment, a lysosomal-targeted fluorogenic GCase substrate (MarkerGene™ LysoLive™ Lysosomal β-Glucosidase Assay Kit, Product M2775) was then added to the wells according to the manufacturer's instructions to a final concentration of 5 uM and cells were incubated a further 16 hours. DRAQ7 (dead-cell stain) was then added to the cells to a final concentration of 3 uM and cells immediately analyzed using a BD Accuri C6 flow cytometer, capturing 10000 live cell events and the median fluorescence of the stained cell populations graphed as shown in FIG. 15.

[2] = system: Glc-Cer and allied glycolipids in Gaucher patient cells; assay: TLC analysis of the clearance of excess glycolipids after TPC treatment; assay type: cell-based, human; settings: 10 uM final concentration, 3 days, FIG. 9
Method: A series of targeted pharmacological chaperone derivatives were compared for their abilities to affect glycolipid biosynthesis by 1D-TLC.
Primary Human Fibroblasts from Gaucher I (F0361999) patients were obtained from Istituto Giannina Gaslini (Genova, Italy). Primary Human Fibroblasts from a healthy donor (AG06173) and Gaucher I (GM00372A) patients were obtained from the Coriell Institute for Medical Research (Camden, N.J.). Cells were cultured in Minimum Essential Medium Eagle supplemented with 10% FCS.
Immortalized B-lymphocytes from healthy donor (GM14643), Gaucher I (GM10870, GM10874), and Gaucher II (GM08752) patients were obtained from the Coriell Institute for Medical Research.
Cell labeling solutions were prepared by diluting substrate stock solutions in the appropriate medium for the cell line (see above) without serum. TPC treatment solutions were prepared by diluting stock solutions in complete media appropriate for the cell line. Cells were treated with either the targeted pharmacological chaperones (10 uM final concentration), miglustat (10 uM) or no drug (control) for 3 days prior to all analyses. For lipid analyses cells were counted on a TC-10 Automated Cell Counter (Bio-Rad, Hercules, Calif.) harvested by centrifugation (800×g, 5 min.) and subjected to one PBS wash (1 mL per sample) and centrifugation as above. […]

| SMILES | lysosomal GCase activity compared to native drug SB216763 [1] | lysosomal GCase activity, Ambroxol and its targeted derivative [1] | other results |
| --- | --- | --- | --- |
| CC(C)CC(NC(=O)C(CCCNC(=N)N)NC(=O)C(CCC(N)=O)NC(=O)C(Cc1ccc(O)cc1)NC(=O)C(CC(=O)O)NC(=O)C(CO)NC(=O)C(C)NC(=O)CN)C(=O)NCC(=O)NC(CSC1CC(=O)N(CCCC(=O)Nc2ccc(C3=C(c4cn(C)c5ccccc45)C(=O)NC3=O)cc2)C1=O)C(=O)O (stereo not drawn) [M2748] (H-GASDYQRLGC(X2)-OH; configuration not given here) | increased lysosomal GCase activity in lysosomes compared to the native drug | – | – |
| CC(=O)NC(CSC1CC(=O)N(CCCC(=O)Nc2ccc(C3=C(c4cn(C)c5ccccc45)C(=O)NC3=O)cc2)C1=O)C(=O)NC(Cc1ccccc1)C(=O)NC(Cc1ccccc1)C(=O)NC(CCCCN)C(=O)NC(CC(=O)O)C(=O)NC(CCC(=O)O)C(=O)NC(CC(C)C)C(=O)O (stereo not drawn) [M2747] (Ac-C(X2)FFKDEL-OH; configuration not given here) | increased lysosomal GCase activity in lysosomes compared to the native drug | – | – |
| CCCCN1C[C@H](O)[C@@H](O)[C@H](O)[C@H]1CO [miglustat, N-butyl-deoxynojirimycin] | – | – | effect on glycolipid biosynthesis / clearance of excess glycolipids (Glc-Cer and allied glycolipids), 1D-TLC [2]: moderate effect |
| CC(=O)NC(CSC1CC(=O)N(CCCC(=O)Nc2ccc(C3=C(c4cn(C)c5ccccc45)C(=O)NC3=O)cc2)C1=O)C(=O)NCC(=O)NCC(=O)NCC(=O)NCC(=O)NCC(=O)NC(C)C(=O)O (stereo not drawn) [M2749] (Ac-C(X2)GGGGGA-OH; configuration not given here) | equivalent or reduced lysosomal staining/drug efficacy than native drug | – | – |
| CC(=O)NC(CSC1CC(=O)N(CCCC(=O)Nc2c(Br)cc(Br)cc2CN[C@H]2CC[C@H](O)CC2)C1=O)C(=O)NCC(=O)NCC(=O)NCC(=O)NCC(=O)NCC(=O)NC(C)C(=O)O (stereo partly drawn) [M2781] (Ac-[ξC](X1)GGGGG[ξA]-OH) | – | increased lysosomal GCase activity | – |
| Nc1c(Br)cc(Br)cc1CNC1CCC(O)CC1 (stereo not drawn) [Ambroxol, 4-(((2-Amino-3,5-dibromophenyl)methyl)amino)cyclohexanol, reference compound] | – | slightly inhibitory toward lysosomal GCase activity | – |
